T1: Cynomolgus macaques CD200R1 isoform a on CHOK1 cells (CHOK1/cynoCD200R1a) (Cynomolgus macaques)
T1 chain: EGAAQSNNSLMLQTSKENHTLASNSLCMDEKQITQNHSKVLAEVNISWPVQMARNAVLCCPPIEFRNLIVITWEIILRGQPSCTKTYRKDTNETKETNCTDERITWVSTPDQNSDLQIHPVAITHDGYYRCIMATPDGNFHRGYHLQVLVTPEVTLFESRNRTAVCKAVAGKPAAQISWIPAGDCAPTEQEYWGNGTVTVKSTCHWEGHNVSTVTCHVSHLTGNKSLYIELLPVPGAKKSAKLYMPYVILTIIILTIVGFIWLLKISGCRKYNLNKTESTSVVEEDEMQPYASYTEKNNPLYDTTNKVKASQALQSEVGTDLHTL

T2: human CD200R1 isoform a on CHOK1 cells (CHOK1/hCD200R1a) (human, UniProt Q8TD46 25-348)
T2 construct: also called CHOK1/CD200R1a
T2 sequence: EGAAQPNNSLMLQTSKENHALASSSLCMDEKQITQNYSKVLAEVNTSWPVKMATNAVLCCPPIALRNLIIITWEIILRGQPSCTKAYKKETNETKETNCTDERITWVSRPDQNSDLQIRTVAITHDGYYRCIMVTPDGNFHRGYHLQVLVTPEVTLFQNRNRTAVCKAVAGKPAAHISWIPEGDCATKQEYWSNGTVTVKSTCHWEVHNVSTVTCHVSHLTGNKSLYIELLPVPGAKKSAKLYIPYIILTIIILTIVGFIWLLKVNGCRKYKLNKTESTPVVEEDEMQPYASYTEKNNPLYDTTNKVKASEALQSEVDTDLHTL

T3: CD200R1a on PathHunter Jurkat CD200R1a signaling cells (Eurofins DiscoverX, 93-1136C19) (human, UniProt Q8TD46 25-348)
T3 sequence: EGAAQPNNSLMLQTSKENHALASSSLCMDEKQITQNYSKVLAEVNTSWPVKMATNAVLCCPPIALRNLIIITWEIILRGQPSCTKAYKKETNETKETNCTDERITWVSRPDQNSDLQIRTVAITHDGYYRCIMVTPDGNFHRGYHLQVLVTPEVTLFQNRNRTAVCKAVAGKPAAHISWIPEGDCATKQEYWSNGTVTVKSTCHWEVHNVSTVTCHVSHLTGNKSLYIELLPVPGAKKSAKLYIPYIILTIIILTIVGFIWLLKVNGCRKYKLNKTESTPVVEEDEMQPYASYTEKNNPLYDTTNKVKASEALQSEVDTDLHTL

T4: human CD200R1a protein (soluble recombinant) (human, UniProt Q8TD46 29-265)
T4 construct: Soluble protein used in BLI; also called human CD200R1 isoform a; not shown: His tag implied by capture on anti-Penta-HIS biosensors
T4 sequence: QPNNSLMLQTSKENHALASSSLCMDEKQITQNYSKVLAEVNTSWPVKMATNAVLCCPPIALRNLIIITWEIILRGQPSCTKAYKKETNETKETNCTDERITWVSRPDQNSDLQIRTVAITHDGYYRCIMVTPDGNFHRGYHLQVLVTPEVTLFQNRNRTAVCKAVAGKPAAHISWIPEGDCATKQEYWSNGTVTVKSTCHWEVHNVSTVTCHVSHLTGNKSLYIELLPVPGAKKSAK


Assays:
[1] = target: T1, Cynomolgus macaques CD200R1 isoform a …; experiment: flow cytometry, CHOK1/cynoCD200R1a cells; table beside the curves, head without unit, x axis Log [Ab] (nM)
Method: This example is intended to investigate the in vitro binding activity of human anti-CD200R1 monoclonal antibodies to human/Cynomolgus macaques CD200R1a expressed on the surface of cells. The anti-CD200R1 antibodies were produced as described in Example 3.4 and the binding experiments at the cell level were performed using CHOK1/hCD200R1a and CHOK1-cynoCD200R1a.
Briefly, CHOK1/hCD200R1a cells and CHOK1-cynoCD200R1a cells were digested, and collected, and then were resuspended in PBS containing 2% BSA, respectively. The cell density was adjusted to 1×10⁶ cells/mL. The cells were seeded in a 96-well V-bottom plate (Corning, #3894) at 100 μL/well, followed by the addition of test antibodies and reference antibodies in a series diluted concentration, each at 100 μL/well. The cells were incubated away from light at 4° C. for 1 h. Thereafter, the cells in each well were rinsed twice with 100 μL of pre-cooled PBS containing 2% BSA, and centrifuged at 500 g at 4° C. for 5 min, and then the supernatant was discarded. 100 μL of fluorescent secondary antibody (Alexa Fluor 488-conjugated AffiniPure Goat Anti-Human IgG, Fcγ Fragment Specific, Jackson, #109-545-098, diluted in a 1:1000 ratio) was added in each well, and the plate was incubated away from light at 4° C. for 1 h. The cells in each well were rinsed twice with 100 μL of pre-cooled PBS containing 2% BSA, and centrifuged at 500 g at 4° C. for 5 min, and then the supernatant was discarded. Finally, the cells in each well were resuspended in 200 μL of pre-cooled PBS containing 2% BSA, and the fluorescence signal values were read using a BD CantoII flow cytometer.

[2] = target: T2, human CD200R1 isoform a on CHOK1 cells …; experiment: flow cytometry blocking assay: antibody titrated against biotin-labelled human CD200 binding to CHOK1/hCD200R1a cells; head prints EC50 without unit, x axis Log [Ab] (nM), y axis Inhibition %
Method: In brief, CHOK1/hCD200R1a cells were digested and resuspended in 2% BSA in PBS. […] The cells were placed at 4° C. and incubated for 1 hour in the dark. […] 100 μL/well of pre-cooled PBS containing 2% BSA was added to rinse the cells twice, centrifugation was performed at 500 g, 4° C. for 5 minutes, and the supernatant was discarded. Fluorescent secondary antibody (PE Streptavidin, BD, Cat #: 554061, 1:200) was added at 100 μL/well, and incubation was performed at 4° C. for 30 minutes in the dark. The cells were washed twice with 200 μL/well of pre-cooled PBS, and were centrifuged at 500 g, 4° C. for 5 minutes, and the supernatant was discarded. Finally, 200 μL/well of pre-cooled PBS was used to resuspend the cells, and the fluorescence signal values were read using ACEA Novocyte 3000 flow cytometer. IC50 values were calculated.

[3] = target: T1, Cynomolgus macaques CD200R1 isoform a …; experiment: flow cytometry, CHOK1/cynoCD200R1a cells (APC-A Mean); table beside the curves
[4] = target: T3, CD200R1a on PathHunter Jurkat CD200R1a …; experiment: cell-based or functional assay
[5] = target: T4, human CD200R1a protein (soluble …); experiment: BLI in-tandem competition on His-captured human CD200R1a; row = 1st Ab (400 nM); competitor (2nd Ab) PR007973
Method: To determine if the anti-CD200R1 antibodies bind to human CD200R1a on different or approximate binding epitopes, epitope competition experiments for the anti-CD200R1 antibodies were performed by the ForteBlio Octet® RED96e platform. […] The in-tandem competition assay format was applied, and it contained two association steps. Firstly, the antigen-loaded biosensors bound to each antibody (i.e., First antibody, 1st Ab) at a saturating concentration of 400 nM for 300 seconds to reach equilibrium and then secondly bound to the competing antibodies (i.e., Second antibody, 2nd Ab) of 400 nM for 300 seconds. The second binding signals are recorded as the 100% signal of each antibody when the first antibodies are replaced by kinetic buffer. All the binding data were analyzed using ForteBlio Data Analysis 11.0 software. The inhibition rate was calculated by the following formula: […]

Binder	EC50 [1]	EC50 [2]	EC50 [3]	MFI (MAX) [3]	IC50 of the inhibition of CD200-induced PathHunter Jurkat CD200R1a luminescence (CHOK1/hCD200 cells as CD200 source); head without unit, x axis Log [Ab] (nM) [4]	Inhibition ratio (%) [5]
PR002906 (antibody, V domains shown, also called recombinant IgG1 antibody of huDX182) VH: QVQLQESGPGLVKPSETLSLTCTVSGYTITSGYDWSWIRQPPGKGLEWIGYINYGGSTNYKPSLGSRVTISVDTSKNQFSLKLSSVTAADTAVYYCARYNEYKSYIYDWYFDFWGQGTLVTVSS VL: DIQMTQSPSSLSASVGDRVTITCKASKNIRSYLAWYQQKPGKAPKLLIYSGSTLHSGVPSRFSGSGSGTDFTLTISSLQPEDFATYYCQQHHEYPLTFGQGTKVEIKR	20.8 nM	0.463 nM	16.4 nM	23900	–	–
PR006480 (antibody, human IgG1, kappa, L234A L235A, also called PR6480) heavy: not shown light: DIQMTQSPPSLSASVGDRVTITCRASQSISSYLNWFQQKAGKAPKLLISATSNLQSGVPSRFSGSGSGTDFTLTISSLQPEDLATYYCQQSYSSPYTFGQGTKVEIKRTVAAPSVFIFPPSDEQLKSGTASVVCLLNNFYPREAKVQWKVDNALQSGNSQESVTEQDSKDSTYSLSSTLTLSKADYEKHKVYACEVTHQGLSSPVTKSFNRGEC	2.98 nM	–	–	–	4.55 nM	–
PR007223 (antibody, human IgG1, kappa, PTM variant of PR006895 (human IgG1)) heavy: not shown light: DIQLTQSPPSLSASVGDRVTITCRASQSISSYLNWFQQKAGKAPKLLISATSNLQSGVPSRFSGSGSGTDFTLTISSLQPEDLATYYCQQTYSSPYTFGQGTKVEIKRTVAAPSVFIFPPSDEQLKSGTASVVCLLNNFYPREAKVQWKVDNALQSGNSQESVTEQDSKDSTYSLSSTLTLSKADYEKHKVYACEVTHQGLSSPVTKSFNRGEC	–	–	–	–	–	99.6%
PR007221 (antibody, human IgG1, kappa, PTM variant of PR006895 (human IgG1)) heavy: not shown light: DIQLTQSPPSLSASVGDRVTITCRASQSISSYLNWFQQKAGKAPKLLISATSNLQSGVPSRFSGSGSGTDFTLTISSLQPEDLATYYCQQTLSSPYTFGQGTKVEIKRTVAAPSVFIFPPSDEQLKSGTASVVCLLNNFYPREAKVQWKVDNALQSGNSQESVTEQDSKDSTYSLSSTLTLSKADYEKHKVYACEVTHQGLSSPVTKSFNRGEC	–	–	–	–	–	95.6%
PR005509 (antibody, human IgG1, kappa, L234A L235A, V domains shown) VH: QVQLVESGGGVVQPGRSLRLSCAASGFTFSSYGFHWVRQAPGKGLEWLGLIWSDGSNKYYADSVKGRFTISRDNSKNTLYLQMNSLRAEDTAVYYCARDRIVGAGFDYWGQGTLVTVSS VL: not shown	–	–	–	–	2.47 nM	–
PR005474 (antibody, human IgG1, kappa, L234A L235A, V domains shown) VH: QVQLVESGGGVVQPGRSLRLSCAASAFTFSSYGMHWVRQAPGKGLEWVALIWNDGSNKFYADSVKGRFTISRDNSKNTLFLQMNSLRAEDTAVYYCARDRILGAGFDYWGQGTLVTVSS VL: not shown	3.34 nM	–	–	–	7.75 nM	–
PR007973 (antibody, human IgG1, kappa, V domains shown, PTM variant of PR006839 (human IgG1)) VH: QVQLVESGGGVVQPGRSLRLSCAASGFTFSSYGFHWVRQAPGKGLEWLGIIWSDASNKYYADSVKGRFTISRDNSKNTLYLQMNSLRAEDTAVYYCARDRIVGEGFDYWGQGTLVTVSS VL: not shown	–	0.36 nM	3.78 nM	62500	–	103%

— patent US20250313626A1 (HARBOUR BIOMED SHANGHAI, published 2025)
